Experimental data as given in patent US20250082770A1 (SYNAFFIX B V, published 2025).

T1: CEACAM5 on MKN-45 cells (UniProt P06731 35-702, limits assumed)
T1 sequence (looked up): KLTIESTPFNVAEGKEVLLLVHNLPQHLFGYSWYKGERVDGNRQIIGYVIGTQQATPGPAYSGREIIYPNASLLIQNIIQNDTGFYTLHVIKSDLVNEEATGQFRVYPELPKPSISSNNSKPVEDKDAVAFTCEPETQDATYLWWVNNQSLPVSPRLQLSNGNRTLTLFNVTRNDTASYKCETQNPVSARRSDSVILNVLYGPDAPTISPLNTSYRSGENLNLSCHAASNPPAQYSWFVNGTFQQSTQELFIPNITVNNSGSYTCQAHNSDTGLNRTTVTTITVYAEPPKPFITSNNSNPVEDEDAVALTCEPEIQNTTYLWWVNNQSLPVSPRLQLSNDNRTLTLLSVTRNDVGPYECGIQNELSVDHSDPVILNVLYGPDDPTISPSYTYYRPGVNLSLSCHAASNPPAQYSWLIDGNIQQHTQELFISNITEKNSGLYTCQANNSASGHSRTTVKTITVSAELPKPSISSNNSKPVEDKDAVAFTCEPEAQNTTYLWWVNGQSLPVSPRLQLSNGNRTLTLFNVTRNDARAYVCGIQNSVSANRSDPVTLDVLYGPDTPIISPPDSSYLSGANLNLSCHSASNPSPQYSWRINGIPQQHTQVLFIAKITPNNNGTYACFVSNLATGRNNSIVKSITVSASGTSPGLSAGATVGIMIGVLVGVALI

T2: human CEACAM6 (CD66c protein, His Tag, Sino Biological) (human, UniProt P40199 35-320)
T2 construct: Bought His-tagged protein captured on nickel NTA plates; also called hCEACAM6; hCD66c; not shown: His tag
T2 sequence (looked up): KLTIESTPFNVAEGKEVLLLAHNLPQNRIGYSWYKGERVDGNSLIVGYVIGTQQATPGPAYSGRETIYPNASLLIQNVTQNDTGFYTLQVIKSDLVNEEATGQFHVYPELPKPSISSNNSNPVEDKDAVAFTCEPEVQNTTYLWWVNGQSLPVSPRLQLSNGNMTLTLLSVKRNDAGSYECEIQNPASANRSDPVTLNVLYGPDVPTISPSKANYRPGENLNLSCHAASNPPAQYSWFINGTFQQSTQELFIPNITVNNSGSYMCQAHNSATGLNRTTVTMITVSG

T3: Human CEACAM5 (CD66e protein, His Tag, Sino Biological) (human, UniProt P06731 35-685)
T3 construct: Bought His-tagged protein captured on nickel NTA plates; also called hCEACAM5; hCD66e; not shown: His tag
T3 sequence (looked up): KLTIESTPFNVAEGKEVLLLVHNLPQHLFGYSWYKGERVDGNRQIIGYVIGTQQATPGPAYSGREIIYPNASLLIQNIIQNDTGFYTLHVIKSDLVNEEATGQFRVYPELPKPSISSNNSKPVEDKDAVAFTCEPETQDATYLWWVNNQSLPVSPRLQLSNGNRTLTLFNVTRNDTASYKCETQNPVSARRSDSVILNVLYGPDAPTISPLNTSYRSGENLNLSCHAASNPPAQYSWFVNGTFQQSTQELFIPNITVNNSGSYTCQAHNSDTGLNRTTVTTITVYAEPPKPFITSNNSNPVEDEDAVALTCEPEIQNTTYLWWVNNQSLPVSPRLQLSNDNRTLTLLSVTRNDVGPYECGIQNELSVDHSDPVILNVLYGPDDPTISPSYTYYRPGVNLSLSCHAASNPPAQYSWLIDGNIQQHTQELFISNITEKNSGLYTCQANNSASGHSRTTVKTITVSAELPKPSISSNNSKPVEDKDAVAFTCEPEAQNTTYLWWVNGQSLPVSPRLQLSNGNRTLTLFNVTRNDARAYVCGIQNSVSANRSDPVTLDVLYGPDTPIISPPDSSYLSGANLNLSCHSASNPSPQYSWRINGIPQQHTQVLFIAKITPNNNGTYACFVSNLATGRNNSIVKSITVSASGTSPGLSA


Columns and labels:
[1] = biological target: T1, CEACAM5 on MKN-45 cells; test: cell-based or functional assay
[2] = biological target: T2, human CEACAM6 (CD66c protein, His Tag, …); test: ELISA, His-tagged antigen on nickel NTA plate, anti-human IgG-HRP detection
Experimental: (§1) Nickel NTA plates (Pierce™ Nickel coated plated, ThermoScientific™) were washed three times prior to use. Human CEACAM5 (CD66e protein, His Tag, Sino Biological), human CEACAM6 (CD66c protein, His Tag, Sino Biological) and cynomolgus CEACAM5 (CD66e protein, His Tag, Sino Biological) were dissolved at a concentration of 0.05 μg/mL in 0.1% BSA in PBS (PBA). 100 μL was added to each well and incubated while shaking for 1 hour at room temperature. After removal, the plate was washed 3× with 0.05% Tween-20 in PBS (washing buffer). ADCs were diluted in 0.1% PBA to a final concentration of 8 μg/mL and 100 μL was added to each well (in triplo). ADCs were incubated for 1 h at room temperature. Prior to the addition of 100 μL 1:100 dilution of secondary antibody (Goat anti-human IgG, HRP conjugate, Invitrogen) the plate was washed 3× with washing buffer. The plate was incubated again for 1 h at room temperature and subsequently washed 3× with washing buffer and 3× with PBS. Finally, 100 μL TMB ELISA substrate (1 Step™ Turbo TMB ELISA substrate, ThermoScientific™) was added and incubated for 1 minute. The absorbance of the colorimetric signal was measured with Infinite® M1000 (Tecan) at 605 nm. Data was plotted corrected for the background (see FIGS. 9).

[3] = biological target: T3, Human CEACAM5 (CD66e protein, His Tag, …); test: as above
Experimental: as §1

Binder	MKN-45, IC50 [1]	binding result [2]	binding result [3]
tusamitamab-DM4 (antibody, human IgG1, kappa, V domains shown, SPDB-DM4 conjugated, sites not stated; average DAR 3.4) VH: EVQLQESGPGLVKPGGSLSLSCAASGFVFSSYDMSWVRQTPERGLEWVAYISSGGGITYAPSTVKGRFTVSRDNAKNTLYLQMNSLTSEDTAVYYCAAHYFGSSGPFAYWGQGTLVTVSS VL: DIQMTQSPASLSASVDRVTITCRASENIFSYLAWYQQKPGKSPKLLVYNTRTLAEGVPSRFSGSGSGTDFSLTISSLQPEDFATYYCQHHYGTPFTFGSGTKLEIKR	2.6 nM		
tusamitamab (antibody, human IgG1, kappa, V domains shown, IgG transiently expressed in CHO K1 cells; also called tusamitamab (I); huMAb2-3) VH: EVQLQESGPGLVKPGGSLSLSCAASGFVFSSYDMSWVRQTPERGLEWVAYISSGGGITYAPSTVKGRFTVSRDNAKNTLYLQMNSLTSEDTAVYYCAAHYFGSSGPFAYWGQGTLVTVSS VL: DIQMTQSPASLSASVDRVTITCRASENIFSYLAWYQQKPGKSPKLLVYNTRTLAEGVPSRFSGSGSGTDFSLTISSLQPEDFATYYCQHHYGTPFTFGSGTKLEIKR		no binding (tested: 8 µg/mL)	
tusamitamab-3 (antibody, human IgG1, kappa, V domains shown, heavy-chain glycan trimmed to core GlcNAc, 6-N3-GalNAc attached and reacted with BCN-HS-PEG2-HS-(va-PAB-Ex)2 3 (exatecan payload); average DAR 3.89) VH: EVQLQESGPGLVKPGGSLSLSCAASGFVFSSYDMSWVRQTPERGLEWVAYISSGGGITYAPSTVKGRFTVSRDNAKNTLYLQMNSLTSEDTAVYYCAAHYFGSSGPFAYWGQGTLVTVSS VL: DIQMTQSPASLSASVDRVTITCRASENIFSYLAWYQQKPGKSPKLLVYNTRTLAEGVPSRFSGSGSGTDFSLTISSLQPEDFATYYCQHHYGTPFTFGSGTKLEIKR	3.4 nM		
tusamitamab-6 (antibody, human IgG1, kappa, V domains shown, heavy-chain glycan trimmed to core GlcNAc, 6-N3-GalNAc attached and reacted with BCN-HS-PEG2-HS-(vc-PABA-Ahx-May)2 6 (maytansinoid payload); average DAR 3.85) VH: EVQLQESGPGLVKPGGSLSLSCAASGFVFSSYDMSWVRQTPERGLEWVAYISSGGGITYAPSTVKGRFTVSRDNAKNTLYLQMNSLTSEDTAVYYCAAHYFGSSGPFAYWGQGTLVTVSS VL: DIQMTQSPASLSASVDRVTITCRASENIFSYLAWYQQKPGKSPKLLVYNTRTLAEGVPSRFSGSGSGTDFSLTISSLQPEDFATYYCQHHYGTPFTFGSGTKLEIKR	0.88 nM		
labetuzumab-3 (antibody, human IgG1, kappa, V domains shown, heavy-chain glycan trimmed to core GlcNAc, 6-N3-GalNAc attached and reacted with BCN-HS-PEG2-HS-(va-PAB-Ex)2 3 (exatecan payload); average DAR 3.90) VH: EVQLVESGGGVVQPGRSLRLSCSASGFDFTTYWMSWVRQAPGKGLEWIGEIHPDSSTINYAPSLKDRFTISRDNAKNTLFLQMDSLRPEDTGVYFCASLYFGFPWFAYWGQGTPVTVSS VL: DIQLTQSPSSLSASVGDRVTITCKASQDVGTSVAWYQQKPGKAPKLLIYWTSTRHTGVPSRFSGSGSGTDFTFTISSLQPEDIATYYCQQYSLYRSFGQGTKVEIKR	6.5 nM		
labetuzumab (antibody, human IgG1, kappa, V domains shown, IgG transiently expressed in CHO K1 cells; also called labetuzumab (II); hMN-14) VH: EVQLVESGGGVVQPGRSLRLSCSASGFDFTTYWMSWVRQAPGKGLEWIGEIHPDSSTINYAPSLKDRFTISRDNAKNTLFLQMDSLRPEDTGVYFCASLYFGFPWFAYWGQGTPVTVSS VL: DIQLTQSPSSLSASVGDRVTITCKASQDVGTSVAWYQQKPGKAPKLLIYWTSTRHTGVPSRFSGSGSGTDFTFTISSLQPEDIATYYCQQYSLYRSFGQGTKVEIKR		no binding (tested: 8 µg/mL)	binds
B12-3 (antibody, human IgG1, kappa, V domains shown, heavy-chain glycan trimmed to core GlcNAc, 6-N3-GalNAc attached and reacted with BCN-HS-PEG2-HS-(va-PAB-Ex)2 3 (exatecan payload); average DAR 3.75) VH: QVQLVQSGAEVKKPGASVKVSCQASGYRFSNFVIHWVRQAPGQRFEWMGWINPYNGNKEFSAKFQDRVTFTADTSANTAYMELRSLRSADTAVYYCARVGPYSWDDSPQDNYYMDVWGKGTTVIVSS VL: EIVLTQSPGTLSLSPGERATFSCRSSHSIRSRRVAWYQHKPGQAPRLVIHGVSNRASGISDRFSGSGSGTDFTLTITRVEPEDFALYYCQVYGASSYTFGQGTKLERKR	> 100 nM		
